For one series, the target named is FAM-labeled CRE DNA. As to the kind of experiment: FP DNA binding, ATF2. Particulars: ATF2 12 nM-10 μM, 10 nM FAM-CRE DNA; 20 mM potassium phosphate, 50 mM NaCl, 5 mM MgCl2, 10 mM TCEP, pH 7.4; 1 h, room temperature; one site model.
The test system of series [1] is CREB1 bZIP-CRE DNA (CRE mDHFR reporter). Briefly: TBS growth assay: transcription block relief / peptide antagonism in E. coli (CREB1/CRE). The class given is cell-based, E. coli BL21-Gold. Particulars: M9 agar, 8 μM TMP, 1 mM IPTG, three independent experiments. The text has this: To validate the new TBS constructs, six BL21-Gold E. coli control strains were generated. Empty plasmids (lacking gene of interest) were used to control for replication and antibiotic stresses (Table ): Control strains 1 and 4 contained mDHFR gene reporter plasmids for 5xCRE and 9xCRE respectively, and two empty plasmids; control strains 2 and 5 contained reporter plasmid, target plasmid encoding the CREB1 basic-leucine zipper (bZIP) domain and one empty plasmid; control strains 3 and 6 contained reporter plasmid, target plasmid and the antagonist plasmid encoding A-CREB (peptide inhibitor of CREB1 comprising a rationally designed acidic extension appended to the N-terminus of the CREB1 LZ).
2 Introduction of CRE DNA sites into the 5′-promoter/UTR region of a mDHFR plasmid facilitates effective transcription block. […]
(§1) pressure respectively. Three independent growth experiments were conducted for each strain/condition with the percentage of the plate covered by bacterial colonies determined using ImageJ 1.54G. Images were converted to 8-bit, threshold values were set to identify coverage, and the resulting black and white image was measured for percentage coverage in a defined circle excluding the plate edge. Percentage coverage was utilised to quantify both bacterial survival and growth rate.

Series [2] concerns 9xDLX (H-box) mDHFR reporter. As to the kind of experiment: TBS growth assay: transcription block by DLX5 HD / FL. The format is cell-based, E. coli BL21-Gold. As to conditions: 8 μM TMP; for colony formation on target expression (transcription block): strains 9 (HD) and 10 (FL) vs 8, 9xDLX mDHFR, M9 agar, 0.8 or 0.2 mM IPTG, 30 or 37 °C, three independent experiments.
Excerpt: To highlight the platforms versatility for TFs with distinct DNA recognition motifs, we next constructed a 9xhomeobox (H-Box) system to identify inhibitors of homeodomain-containing TFs, including the DLX (Figure C), pre-B cell leukemia transcription factor (PBX) and orthodenticle homeobox protein (OTX) families. As with the CRE-based design, nine H-box consensus sequences were inserted into the 5′-promoter/UTR region of the mDHFR reporter gene (Figure S4).
(§2) 3 Introduction of H-box DNA sites into the 5′-promoter/UTR region of a mDHFR plasmid enables transcription block by both DLX5 full length and homeodomain. Equal numbers of cells from the control strains (Table ) were plated on selective M9 agar (0 or 8 μM TMP, 0.8 or 0.2 mM IPTG) and incubated (30 or 37 °C) before imaging. Bar charts show % plate coverage for three independent experiments with error bars shown as one standard deviation. Select p values from a t test are indicated (*p ≤ 0.05; **p ≤ 0.01; ns = not significant).
(§3) Enhancing the efficacy, utility and throughput of the Transcription Block Survival peptide library screening platform
(§4) Andrew Brennan1,2, T M Simon Tang1 and Jody M Mason1,2
(§5) 1Department of Life Sciences, University of Bath, Bath BA2 7AY, United Kingdom 2Address correspondence to JMM or AB (j.mason@bath.ac.uk; ab3107@bath.ac.uk) […]
Plasmid constructs: Target cognate binding sequence-containing inserts were produced using PCR fill-in reactions from synthesised primers (Merck). They were then subcloned using XhoI and SphI sites into the pQE16-derivative pES300d WT mDHFR plasmid (Figure S1, S2, S3). […]
as §1

In a further series the target is FAM-H-Box DNA. As to the kind of experiment: FP DNA binding, DLX5. As to conditions: pH 7.4. The method, then: (§6) removed before peptide concentration determination.
(§7) Peptide samples were suspended in 20
(§8) Post-melt scans at 20°C confirmed the
(§9) Sequential 2 µL injections of ATF2W (50 µM)
(§10) Data from a control experiment whereby […]
(§11) errors are given as one standard deviation.
(§12) Fluorescence polarisation: Fluorescence polarisation was measured in a CLARIOstar […]
(§13) chloride, 5 mM MgCl2, 10 mM TCEP, pH 7.4 buffer. Palindromic FAM-CRE DNA oligo was […]
(§14) purchased from Merck: 5’[6FAM]- GCGCTGACGTCAGCGC. 200 µM of the oligo was […]
(§15) prepared in water and then annealed by heating to 95°C for 10 minutes before cooling slowly to room temperature to give a 100 µM duplex stock. Samples containing 10 nM FAM-CRE and a serial dilution of ATF2 (12 nM-10 µM) were prepared and incubated at room temperature for 1 hour before transferring to the assay plate for measurement. Data were fit to a one site binding model. For antagonism experiments, the ATF2 concentration required for 80% response was selected. Samples containing 10 nM FAM-TRE, 625 nM ATF2 and a serial dilution of ATF2W (29 nM-12 µM) were prepared and incubated at room temperature for 2 hours before transferring to the assay plate for measurement. CREB1/CRE, cJun/TRE and DLX5/H-box DNA antagonism were determined by the equivalent experiments, using the FAM-CRE oligo above; FAM-TRE DNA oligoes: 5’-[6FAM]-TCTCTGACTCAGAGA, 5’- […]

The target in the next series is FAM-CRE DNA. Briefly: FP DNA binding, CREB1. Particulars: pH 7.4. The method, then:
as §6, §7, §8, §9, §10, §11, §12, §13, §14, §15

The test system of another series is E. coli. As to the kind of experiment: TBS growth without TMP (cellular toxicity of expression). The class given is cell-based, E. coli BL21-Gold. As to conditions: strain 10, 0 μM TMP, 0.8 mM IPTG. How it is done: as §2, §3, §4, §5, §1
The target of series [3] is cJun bZIP (UniProt P05412). As to the kind of experiment: competition (FP). As to conditions: antagonist peptide ATF2W; FP: chloride salt (buffer and salt concentration truncated in material), 5 mM MgCl2, 10 mM TCEP, pH 7.4; 10 nM FAM-DNA; 1 h incubation, temperature not in ….
Series [4] addresses cJun bZIP (UniProt P05412). As to the kind of experiment: fluorescence polarization. As to conditions: FP: chloride salt (buffer and salt concentration truncated in material), 5 mM MgCl2, 10 mM TCEP, pH 7.4; 10 nM FAM-DNA; 1 h incubation, temperature not in …. (In general: In fluorescence polarisation assays a small probe gives low polarisation when free and higher when bound to something large.)

The target in the next series is FAM-TRE DNA. As to the kind of experiment: FP DNA binding, cJun. Particulars: pH 7.4. How it is done: as §6, §7, §8, §9, §10, §11, §12, §13, §14, §15
The target in series [5] is T1, CREB1 bZIP (UniProt P16220 269-327).
T1 sequence: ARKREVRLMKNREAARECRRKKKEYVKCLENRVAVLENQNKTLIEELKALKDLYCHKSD
Briefly: fluorescence polarization; FP: chloride salt (buffer and salt concentration truncated in material), 5 mM MgCl2, 10 mM TCEP, pH 7.4; 10 nM FAM-DNA; 1 h incubation, temperature not in material. Particulars: chain copies: 2; label: 5' 6-FAM; blunt; self-complementary, 2 copies.

In series [6] the target is T1, CREB1 bZIP. Briefly: competition (FP); antagonist peptide ATF2W; FP: chloride salt (buffer and salt concentration truncated in material), 5 mM MgCl2, 10 mM TCEP, pH 7.4; 10 nM FAM-DNA; 1 h incubation, temperature not in material. Particulars: chain copies: 2; label: 5' 6-FAM; blunt; self-complementary, 2 copies.
Series [7] has as its target T2, ATF2 bZIP (human, UniProt P15336 352-410).
T2 sequence: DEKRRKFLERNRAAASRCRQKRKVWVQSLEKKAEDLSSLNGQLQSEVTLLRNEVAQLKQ
Briefly: fluorescence polarization; 10 nM DNA, ATF2 12 nM-10 uM; FP: chloride salt (buffer and salt concentration truncated in material), 5 mM MgCl2, 10 mM TCEP, pH 7.4; 10 nM FAM-DNA; 1 h incubation, temperature not in material. As to conditions: chain copies: 2; label: 5' 6-FAM; blunt; self-complementary, 2 copies.

For series [8], the target named is T2, ATF2 bZIP. Briefly: competition (FP); antagonist peptide ATF2W 29 nM-12 uM, 625 nM ATF2; FP: chloride salt (buffer and salt concentration truncated in material), 5 mM MgCl2, 10 mM TCEP, pH 7.4; 10 nM FAM-DNA; 1 h incubation, temperature not in material. Particulars: chain copies: 2; label: 5' 6-FAM; blunt; self-complementary, 2 copies.
Series [9] addresses T2, ATF2 bZIP. Briefly: competition (FP); antagonist: non-selected library member control peptide; FP: chloride salt (buffer and salt concentration truncated in material), 5 mM MgCl2, 10 mM TCEP, pH 7.4; 10 nM FAM-DNA; 1 h incubation, temperature not in material. Particulars: chain copies: 2; label: 5' 6-FAM; blunt; self-complementary, 2 copies.
The target of another series is DLX5 HD (UniProt P56178 138-198). As to the kind of experiment: fluorescence polarization; FP: chloride salt (buffer and salt concentration truncated in material), 5 mM MgCl2, 10 mM TCEP, pH 7.4; 10 nM FAM-DNA; 1 h incubation, temperature not in material. Particulars: label: 5' 6-FAM; blunt; self-complementary, 2 copies.

The results in this text go back to PMC12648313, “Enhancing the Efficacy, Utility, and Throughput of the Transcription Block Survival Peptide Library Screening Platform” (JACS Au, 2025).

Usually Kd stands for a measure of binding affinity in units of concentration. By IC50 is commonly meant the concentration needed to halve the response being measured.

DLX5 HD, sequence (P56178 138-198): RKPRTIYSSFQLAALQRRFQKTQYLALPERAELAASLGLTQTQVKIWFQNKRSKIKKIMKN

For “ATF2: human ATF2 bZIP domain spans from Asp352 to Gln410”, binding on FAM-labeled CRE DNA was put at a Kd of 277 ± 19 nM.
Turning to “LEQQLEELAQENEELEKEAEELEQELAELENRVAVLENQNKTLIEELKALKDLYCHKSD [A-CREB, reference compound]”, the “bacterial growth restoration (relief of transcriptional block)” value in series [1] (strains 3 and 6 (5xCRE and 9xCRE mDHFR) expressing CREB1 bZIP and A-CREB, % plate coverage) is “Growth was restored”.
Regarding “DLX5: DLX5 HD spans from Val137 to Asn198”, in [2], the “colony formation on target expression (transcription block)” value was “less pronounced than in the corresponding CRE system”. The molecule also registered a dissociation constant (Kd) at FAM-H-Box DNA of 383 ± 19 nM.
Regarding “CREB1: CREB1 bZIP domain spans from Ala283 to Asp341 (ARKREVRLMKNREAARECRRKKKEYVKCLENRVAVLENQNKTLIEELKALKDLYCHKSD)”, the “bacterial growth on target expression (transcription block)” value in series [1] (strains 2 and 5 (5xCRE and 9xCRE mDHFR)) is listed as “markedly reduced growth”. The molecule further showed a Kd at FAM-CRE DNA of 156 ± 26 nM.
On to DLX5 FL: full-length DLX5, for which, in series [2] (strain 10 vs 9, optimized conditions: 0.2 mM IPTG or 30 °C), the “growth inhibition on target expression, comparison FL vs HD” value is “produced a robust transcriptional block and more effectively suppressed E. coli growth than DLX5 HD”. In addition, the “colony formation on target expression (transcription block)” value in [2] is “introduced a transcriptional block, resulting in reduced colony formation”. The “growth in absence of TMP (cellular toxicity)” value in the series with E. coli is listed as “reduced growth was also observed in the absence of TMP”.
With “TCTCTGACTCAGAGA (double strand) [FAM-TRE]”, the concentration for half-maximal inhibition (IC50) with cJun bZIP [3] was 1850 nM. Further, in the series with cJun bZIP [4], the Kd worked out at 330 nM.

B1: cJun: purified cJun bZIP (protein)
chain: RIKAERKRMRNRIAASKCRKRKLERIARLEEKVKTLKAQNSELASTANMLREQVAQLKQKVMNH
Take B1: binding at FAM-TRE DNA was characterised by a dissociation constant (Kd) of 330 ± 42 nM.

B2: FAM-CRE (dsDNA)
DNA 1: GCGCTGACGTCAGCGC
DNA 2: GCGCTGACGTCAGCGC
B2: the values for the Kd in the series with CREB1 bZIP [5] and with ATF2 bZIP [7] were 156 ± 26 nM and 277 ± 19 nM, respectively. Moreover, the IC50 with CREB1 bZIP [6] is 2360 ± 59 nM; with ATF2 bZIP [8] it was 667 ± 71 nM; with ATF2 bZIP [9], 3690 ± 110 nM.

B3: FAM-H-Box (dsDNA)
DNA 1: TCTCTAATTAGAGA
DNA 2: TCTCTAATTAGAGA
Consider B3, for which the dissociation constant Kd with DLX5 HD was 383 ± 19 nM.
